Consider seven molecules from paper PMC11594918, “Kinetic Features of Degradation of R-Loops by RNase H1 from Escherichia coli”.

The target in data set [1] is T1, RNase H1 D10N (RH1 D10N) (Escherichia coli, UniProt P0A7Y4 1-155, D10N).
T1 sequence: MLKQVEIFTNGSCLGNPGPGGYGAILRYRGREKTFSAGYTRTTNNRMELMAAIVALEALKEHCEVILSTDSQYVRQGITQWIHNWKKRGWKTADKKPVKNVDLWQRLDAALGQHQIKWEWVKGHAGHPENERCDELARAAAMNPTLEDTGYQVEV
Description: MST; 10 mM Mg2+; saturation not reached, low limit estimate; MST: 40 mM Tris-HCl pH 7.9, 40 mM KCl, 10 mM MgCl2, 25 C; R-loop 0.5 uM, RH1 D10N 0.05-30 uM (RNAP MST conditions not stated separately). The conditions noted are these: protein: recombinant, tags: N-terminal 6xHis, label: 5'-FAM on RNA, three strands 1:1:1, bubble.

Another data set deals with RNA polymerase (RNAP) (Escherichia coli, UniProt P0A7Z4;P0A8V2;P0A8T7;P0A800 1-329;1-1342;1-1407;2-91). Description: MST; MST: 40 mM Tris-HCl pH 7.9, 40 mM KCl, 10 mM MgCl2, 25 C; R-loop 0.5 uM, RH1 D10N 0.05-30 uM (RNAP MST conditions not stated separately). The conditions noted are these: protein: recombinant; tags: N-terminal His (pVS10 plasmid); chain copies: 2;1;1;1; label: 5'-FAM on RNA; three strands 1:1:1 (nontemplate DNA, template DNA, RNA); bubble; 11 bp hybrid.

In data set [2] the target is T1, RNase H1 D10N (RH1 D10N). Description: MST; 10 mM Mg2+; MST: 40 mM Tris-HCl pH 7.9, 40 mM KCl, 10 mM MgCl2, 25 C; R-loop 0.5 uM, RH1 D10N 0.05-30 uM (RNAP MST conditions not stated separately). The following applies: protein: recombinant, tags: N-terminal 6xHis, label: 5'-FAM on RNA, bubble.
Setting [3] is: three strands 1:1:1, 10-11 nt hybrid.

Sequence of RNA polymerase (RNAP) (P0A7Z4 whole entry, chain 1 of 4): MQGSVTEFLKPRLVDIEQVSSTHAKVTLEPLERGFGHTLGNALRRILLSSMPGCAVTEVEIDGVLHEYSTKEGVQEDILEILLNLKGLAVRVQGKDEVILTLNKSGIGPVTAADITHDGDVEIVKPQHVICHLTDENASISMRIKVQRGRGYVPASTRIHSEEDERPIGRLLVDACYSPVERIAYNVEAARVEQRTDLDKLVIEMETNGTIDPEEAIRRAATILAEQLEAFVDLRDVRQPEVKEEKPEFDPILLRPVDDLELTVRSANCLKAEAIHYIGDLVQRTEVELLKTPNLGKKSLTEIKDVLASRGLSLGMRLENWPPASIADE
Sequence of RNA polymerase (RNAP) (P0A8V2 whole entry, chain 2 of 4): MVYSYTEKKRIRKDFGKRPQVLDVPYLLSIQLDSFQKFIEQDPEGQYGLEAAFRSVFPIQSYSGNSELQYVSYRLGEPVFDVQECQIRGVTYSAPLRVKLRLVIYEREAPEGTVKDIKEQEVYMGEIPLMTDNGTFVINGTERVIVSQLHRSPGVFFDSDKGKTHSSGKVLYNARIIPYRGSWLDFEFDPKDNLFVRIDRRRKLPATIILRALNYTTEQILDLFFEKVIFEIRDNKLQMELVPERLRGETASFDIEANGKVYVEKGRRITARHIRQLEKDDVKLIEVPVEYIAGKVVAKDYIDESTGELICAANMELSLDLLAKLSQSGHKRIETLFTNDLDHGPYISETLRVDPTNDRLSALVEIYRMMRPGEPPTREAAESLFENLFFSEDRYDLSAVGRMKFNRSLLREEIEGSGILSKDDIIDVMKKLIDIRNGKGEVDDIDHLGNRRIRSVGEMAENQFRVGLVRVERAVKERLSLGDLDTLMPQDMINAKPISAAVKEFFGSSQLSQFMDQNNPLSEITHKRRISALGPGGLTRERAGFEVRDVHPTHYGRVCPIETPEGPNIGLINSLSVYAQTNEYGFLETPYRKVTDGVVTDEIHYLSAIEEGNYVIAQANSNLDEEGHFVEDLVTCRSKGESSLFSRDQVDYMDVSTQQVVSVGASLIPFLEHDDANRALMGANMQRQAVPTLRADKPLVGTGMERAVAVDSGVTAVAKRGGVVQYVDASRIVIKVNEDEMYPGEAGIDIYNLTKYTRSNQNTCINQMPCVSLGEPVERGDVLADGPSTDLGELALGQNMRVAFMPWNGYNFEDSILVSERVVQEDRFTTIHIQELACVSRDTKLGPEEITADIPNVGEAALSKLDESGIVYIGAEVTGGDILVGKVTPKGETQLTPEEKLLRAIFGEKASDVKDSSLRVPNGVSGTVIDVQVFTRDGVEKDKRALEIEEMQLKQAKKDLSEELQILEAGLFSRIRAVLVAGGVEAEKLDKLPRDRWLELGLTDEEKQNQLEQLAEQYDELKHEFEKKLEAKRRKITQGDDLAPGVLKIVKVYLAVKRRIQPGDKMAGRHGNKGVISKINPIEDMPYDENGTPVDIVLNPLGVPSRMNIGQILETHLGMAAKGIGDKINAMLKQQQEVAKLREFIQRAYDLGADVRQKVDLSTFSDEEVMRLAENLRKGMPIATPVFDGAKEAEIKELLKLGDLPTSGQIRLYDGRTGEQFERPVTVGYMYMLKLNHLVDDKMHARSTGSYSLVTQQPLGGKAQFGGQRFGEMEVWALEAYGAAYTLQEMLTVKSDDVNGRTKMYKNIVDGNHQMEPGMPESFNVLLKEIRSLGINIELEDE
Sequence of RNA polymerase (RNAP) (P0A8T7 whole entry, chain 3 of 4): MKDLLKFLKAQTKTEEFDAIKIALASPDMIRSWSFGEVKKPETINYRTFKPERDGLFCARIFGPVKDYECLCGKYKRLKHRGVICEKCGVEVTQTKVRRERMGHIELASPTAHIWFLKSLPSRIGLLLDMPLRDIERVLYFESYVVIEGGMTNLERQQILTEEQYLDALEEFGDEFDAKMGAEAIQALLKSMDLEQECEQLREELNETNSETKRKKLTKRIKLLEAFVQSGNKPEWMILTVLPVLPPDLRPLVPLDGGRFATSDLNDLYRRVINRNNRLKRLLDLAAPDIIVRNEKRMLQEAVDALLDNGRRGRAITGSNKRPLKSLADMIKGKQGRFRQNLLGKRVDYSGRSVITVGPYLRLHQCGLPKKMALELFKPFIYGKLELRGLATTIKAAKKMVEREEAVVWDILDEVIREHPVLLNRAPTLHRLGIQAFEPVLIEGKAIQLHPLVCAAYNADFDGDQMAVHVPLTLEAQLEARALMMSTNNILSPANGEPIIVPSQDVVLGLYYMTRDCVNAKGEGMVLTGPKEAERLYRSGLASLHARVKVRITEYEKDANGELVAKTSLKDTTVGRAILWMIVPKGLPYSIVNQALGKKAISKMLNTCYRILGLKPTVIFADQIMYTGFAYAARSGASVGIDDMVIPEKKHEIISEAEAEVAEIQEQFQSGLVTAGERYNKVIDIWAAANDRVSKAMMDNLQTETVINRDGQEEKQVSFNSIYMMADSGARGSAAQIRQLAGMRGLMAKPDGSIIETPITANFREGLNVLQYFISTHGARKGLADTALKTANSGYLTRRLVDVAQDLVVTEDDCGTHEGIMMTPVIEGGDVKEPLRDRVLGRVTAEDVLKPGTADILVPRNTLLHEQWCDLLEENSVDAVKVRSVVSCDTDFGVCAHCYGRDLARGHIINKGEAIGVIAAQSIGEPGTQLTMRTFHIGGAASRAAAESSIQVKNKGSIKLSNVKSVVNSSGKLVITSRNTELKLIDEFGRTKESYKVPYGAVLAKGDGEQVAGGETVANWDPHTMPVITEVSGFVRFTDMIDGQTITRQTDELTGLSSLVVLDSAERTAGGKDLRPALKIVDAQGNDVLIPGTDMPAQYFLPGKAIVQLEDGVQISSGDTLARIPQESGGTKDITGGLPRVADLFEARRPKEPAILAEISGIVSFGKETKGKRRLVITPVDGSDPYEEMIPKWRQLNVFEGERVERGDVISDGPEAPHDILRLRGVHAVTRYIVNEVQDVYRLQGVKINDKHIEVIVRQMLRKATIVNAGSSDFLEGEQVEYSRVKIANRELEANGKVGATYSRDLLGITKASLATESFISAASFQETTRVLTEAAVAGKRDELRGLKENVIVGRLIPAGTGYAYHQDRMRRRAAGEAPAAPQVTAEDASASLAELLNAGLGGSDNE
Sequence of RNA polymerase (RNAP) (P0A800 2-91, chain 4 of 4): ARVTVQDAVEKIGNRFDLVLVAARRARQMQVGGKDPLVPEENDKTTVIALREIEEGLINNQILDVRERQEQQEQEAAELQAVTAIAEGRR

B1: R-loop 7 (mixed)
DNA 1: ACTTGTAGCGATCTAAGGTCTTTTTTTTTTTTTTTTTTTGGCTCATTGCAGTAGAGTAGC
DNA 2: GCTACTCTACTGCAATGAGCTGGGATGTGTAGTGGAATAGAACCTTAGATCGCTACAAGT
RNA: CUCACAUCUAUUCCACUACACAUCCCA
A word on the Kd: it is a measure of binding affinity in units of concentration. On to B1, for which the Kd in the data set with RNase H1 D10N (RH1 D10N) [1] (extended hybrid) is about 6.7 µM.

B2: R-loop 8 (mixed)
DNA 1: ACTTGTAGCGATCTAAGGTCTTTTTTTTTTTTTTTTTTTTTTTTTTTTTGGCTCATTGCAGTAGAGTAGC
DNA 2: GCTACTCTACTGCAATGAGTGCTTGATGGAGGGATGTGTAGTGGAATAGATACCTTAGATCGCTACAAGT
RNA: CUCACAUCUAUUCCACUACACAUCCCUCCAUCAAGCA
As for B2, the Kd with RNase H1 D10N (RH1 D10N) [1] (extended hybrid) is about 9.3 µM.

B3: R-loop 9 (mixed)
DNA 1: ACTTGTAGCGATCTAAGGTCTTTTGGGTGGGTGGGTGGGTTTTTTTTTTGGCTCATTGCAGTAGAGTAGC
DNA 2: GCTACTCTACTGCAATGAGTGCTTGATGGAGGGATGTGTAGTGGAATAGATACCTTAGATCGCTACAAGT
RNA: CUCACAUCUAUUCCACUACACAUCCCUCCAUCAAGCA
Take B3: in the data set with RNase H1 D10N (RH1 D10N) [1] (extended hybrid, G4 in nontemplate DNA (annealed in 140 mM KCl)), the Kd was about 5.1 µM.

B4: R-loop 6 (mixed)
DNA 1: ACTTGTAGCGATCTAAGGTCTTTTTTTTTTTTTTGGCTCATTGCAGTAGAGTAGC
DNA 2: GCTACTCTACTGCAATGAGCTGCTCTCTGGACTCGAACCTTAGATCGCTACAAGT
RNA: CUCACAUCGAGUCCAGAGAGCA
For the molecule B4, in the data set with RNase H1 D10N (RH1 D10N) [1] (16 nt hybrid), the Kd was about 9.7 µM.

B5: R-loop 1 (mixed)
DNA 1: ACTTGTAGCGATCTAAGGTCTTTTTTTTTGGCTCATTGCAGTAGAGTAGC
DNA 2: GCTACTCTACTGCAATGAGCTGCTCTCTGGAACCTTAGATCGCTACAAGT
RNA: CUCACAUCCAGAGAGCA
For the molecule B5, the Kd in the data set with RNA polymerase (RNAP) was found to be 0.3 ± 0.1 µM; in the data set with RNase H1 D10N (RH1 D10N) [2] (three strands 1:1:1 (nontemplate DNA, template DNA, RNA), 11 bp hybrid), 1.2 ± 0.4 µM.

B6: R-loop 3 (mixed)
DNA 1: ACTTGTAGCGATCTAAGGTCTTTTTTTTTGCCTCATTGCAGTAGAGTAGC
DNA 2: GCTACTCTACTGCAATGAGCTGCTCTCTGGAACCTTAGATCGCTACAAGT
RNA: CUCACAUCCAGAGAGCA
Consider B6, for which, in the data set with RNase H1 D10N (RH1 D10N) [2] (setting [3]), the Kd is 1.5 ± 0.4 µM.

B7: R-loop 2 (mixed)
DNA 1: ACTTGTAGCGATCTAAGGTCTTTTTTTTTAGCTCATTGCAGTAGAGTAGC
DNA 2: GCTACTCTACTGCAATGAGCTGCTCTCTGGAACCTTAGATCGCTACAAGT
RNA: CUCACAUCCAGAGAGCA
Turning to B7, in the data set with RNase H1 D10N (RH1 D10N) [2] (setting [3]), the Kd was 1.1 ± 0.4 µM.
